Measurements from PMC6643279 (Biochemistry, 2018).

Columns and labels:
Experiment in all cases: purified protein
CC(=O)Oc1ccc2ccccc2c1 = settings: pH 8.0; 30.0 °C
[1] = system: CC(=O)OCC(COP(=O)(O)O)OC(C)=O; settings: pH 8.0; 30.0 °C
CC(=O)Oc1c[nH]c2ccccc12 = settings: pH 8.3; 30.0 °C

“phosphotriesterase homology protein (PHP) (Escherichia coli K-12)” was tested, and the Km (CC(=O)Oc1ccc2ccccc2c1) was 1800 ± 200 µM, the kcat/Km (CC(=O)Oc1ccc2ccccc2c1) was 1400 ± 200 M⁻¹ s⁻¹ and the Km [1] was 6000 ± 500 µM. For the same substance, the kcat/Km [1] was 4600 ± 650 M⁻¹ s⁻¹, the Km (CC(=O)Oc1c[nH]c2ccccc12) was 1800 ± 200 µM and the kcat/Km (CC(=O)Oc1c[nH]c2ccccc12) was 180 ± 20 M⁻¹ s⁻¹.
